{
  "source": "patent US20210040193A1",
  "about": "(BEIJING HANMI PHARMACEUTICAL, published 2021)",
  "key": {"[1]": {"molecular_target": "T1, Recombinant human PD-1 (Beijing Sino Biological Inc., Catalog No. 10377-H08H) (human, UniProt Q15116 25-167)", "T1 construct": "Bought recombinant protein", "T1 sequence (Q15116 25-167 limits assumed)": "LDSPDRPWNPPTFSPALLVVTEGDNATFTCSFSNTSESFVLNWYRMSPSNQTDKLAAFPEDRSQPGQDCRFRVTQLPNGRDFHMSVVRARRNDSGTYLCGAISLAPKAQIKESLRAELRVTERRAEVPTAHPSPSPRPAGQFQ", "experiment": "ELISA, human PD-1 coated on the plate, anti-human IgG-HRP detection; control"}, "[2]": {"molecular_target": "T1, Recombinant human PD-1 (Beijing Sino …)", "experiment": "ELISA, human PD-1 coated on the plate, anti-human IgG-HRP detection"}},
  "data": [
    {"binder": "PD-1 (BJHM) monoclonal antibody (antibody, V domains shown, Control monoclonal antibody; also called anti-human PD-1 antibody PD-1(BJHM)) VH: EVNLVESGGGLVQPGGSLRLSCAASGFTFSSYGMSWVRQAPGKGLEWVASISGGGRYTYYPDSMKGRFTISRDNSKNNLYLQMNSLRAEDTAVYYCVYEYFYTMDYWGQGTLVTVSS VL: DIVLTQSPATLSLSPGERATLSCRASQSISNNLHWYQQKPGQAPRLLIRFASQSISGIPARFSGSGSGTDFTLTISSLEPEDFAVYFCQQSDNWPLTFGGGTKVEIK", "values": [
      {"measurement": "binding result", "setting": "[1]", "value": "binds"}
    ]},
    {"binder": "anti PD-1(BJHM)/VEGF(Bevaci) heterodimeric antibody (bispecific antibody, human IgG1, kappa, N297A) heavy 1: EVNLVESGGGLVQPGGSLRLSCAASGFTFSSYGMSWVRQAPGKGLEWVASISGGGRYTYYPDSMKGRFTISRDNSKNNLYLQMNSLRAEDTAVYYCVYEYFYTMDYWGQGTLVTVSSASTKGPSVFPLAPSSKSTSGGTAALGCLVKDYFPEPVTVSWNSGALTSGVHTFPAVLQSSGLYSLSSVVTVPSSSLGTQTYICNVNHKPSNTKVDKKVEPKSCDKTHTCPPCPAPELLGGPSVFLFPPKPKDTLMISRTPEVTCVVVDVSHEDPEVKFNWYVDGVEVHNAKTKPREEQYASTYRVVSVLTVLHQDWLNGKEYKCKVSNKALPAPIEKTISKAKGQPREPQVYTLPPSRDELTKNQVSLLCLVKGFYPSDIAVEWESNGQPENNYKTTPPVLRSDGSFFLYSKLTVDKSRWQQGNVFSCSVMHEALHNHYTQKSLSLSPGK light 1: DIVLTQSPATLSLSPGERATLSCRASQSISNNLHWYQQKPGQAPRLLIRFASQSISGIPARFSGSGSGTDFTLTISSLEPEDFAVYFCQQSDNWPLTFGGGTKVEIKRTVAAPSVFIFPPSDEQLKSGTASVVCLLNNFYPREAKVQWKVDNALQSGNSQESVTEQDSKDSTYSLSSTLTLSKADYEKHKVYACEVTHQGLSSPVTKSFNRGEC heavy 2: EVQLVESGGGLVQPGGSLRLSCAASGYTFTNYGMNWVRQAPGKGLEWVGWINTYTGEPTYAADFKRRFTFSLDTSKSTAYLQMNSLRAEDTAVYYCAKYPHYYGSSHWYFDVWGQGTLVTVSSASTKGPSVFPLAPSSKSTSGGTAALGCLVKDYFPEPVTVSWNSGALTSGVHTFPAVLQSSGLYSLSSVVTVPSSSLGTQTYICNVNHKPSNTKVDKKVEPKSCDKTHTCPPCPAPELLGGPSVFLFPPKPKDTLMISRTPEVTCVVVDVSHEDPEVKFNWYVDGVEVHNAKTKPREEQYASTYRVVSVLTVLHQDWLNGKEYKCKVSNKALPAPIEKTISKAKGQPREPQVYTEPPSRDELTKNQVSLTCLVKGFYPSDIAVEWESNGQPENNYKTTPPVLDSDGSFFLLSVLTVDKSRWQQGNVFSCSVMHEALHNHYTQKSLSLSPGK light 2: not shown", "values": [
      {"measurement": "binding result", "setting": "[2]", "value": "binds"}
    ]},
    {"binder": "anti-PD-1 (Pembro)/VEGF (G631) heterodimeric antibody (bispecific antibody, human IgG1, kappa, N297A, Heterodimer of two half antibodies; it is not spelled out for this molecule; also called anti-PD-1 (Pembro)/VEGF (G631) heterodimer antibody) heavy 1: QVQLVQSGVEVKKPGASVKVSCKASGYTFTNYYMYWVRQAPGQGLEWMGGINPSNGGTNFNEKFKNRVTLTTDSSTTTAYMELKSLQFDDTAVYYCARRDYRFDMGFDYWGQGTTVTVSSASTKGPSVFPLAPSSKSTSGGTAALGCLVKDYFPEPVTVSWNSGALTSGVHTFPAVLQSSGLYSLSSVVTVPSSSLGTQTYICNVNHKPSNTKVDKKVEPKSCDKTHTCPPCPAPELLGGPSVFLFPPKPKDTLMISRTPEVTCVVVDVSHEDPEVKFNWYVDGVEVHNAKTKPREEQYASTYRVVSVLTVLHQDWLNGKEYKCKVSNKALPAPIEKTISKAKGQPREPQVYTLPPSRDELTKNQVSLLCLVKGFYPSDIAVEWESNGQPENNYKTTPPVLRSDGSFFLYSKLTVDKSRWQQGNVFSCSVMHEALHNHYTQKSLSLSPGK light 1: EIVLTQSPATLSLSPGERATLSCRASKGVSTSGYSYLHWYQQKPGQAPRLLIYLASYLESGVPARFSGSGSGTDFTLTISSLEPEDFAVYYCQHSRDLPLTFGGGTKVEIKRTVAAPSVFIFPPSDEQLKSGTASVVCLLNNFYPREAKVQWKVDNALQSGNSQESVTEQDSKDSTYSLSSTLTLSKADYEKHKVYACEVTHQGLSSPVTKSFNRGEC heavy 2: EVQLVESGGGLVQPGGSLRLSCAASGFTISDYWIHWVRQAPGKGLEWVAGITPAGGYTYYADSVKGRFTISADTSKNTAYLQMNSLRAEDTAVYYCARFVFFLPYAMDYWGQGTLVTVSSASTKGPSVFPLAPSSKSTSGGTAALGCLVKDYFPEPVTVSWNSGALTSGVHTFPAVLQSSGLYSLSSVVTVPSSSLGTQTYICNVNHKPSNTKVDKKVEPKSCDKTHTCPPCPAPELLGGPSVFLFPPKPKDTLMISRTPEVTCVVVDVSHEDPEVKFNWYVDGVEVHNAKTKPREEQYASTYRVVSVLTVLHQDWLNGKEYKCKVSNKALPAPIEKTISKAKGQPREPQVYTEPPSRDELTKNQVSLTCLVKGFYPSDIAVEWESNGQPENNYKTTPPVLDSDGSFFLLSVLTVDKSRWQQGNVFSCSVMHEALHNHYTQKSLSLSPGK light 2: not shown", "values": [
      {"measurement": "binding result", "setting": "[2]", "value": "binds"}
    ]},
    {"binder": "anti-PD-1 (BJHM)/VEGF (G631) heterodimeric antibody (bispecific antibody, human IgG1, kappa, N297A) heavy 1: EVNLVESGGGLVQPGGSLRLSCAASGFTFSSYGMSWVRQAPGKGLEWVASISGGGRYTYYPDSMKGRFTISRDNSKNNLYLQMNSLRAEDTAVYYCVYEYFYTMDYWGQGTLVTVSSASTKGPSVFPLAPSSKSTSGGTAALGCLVKDYFPEPVTVSWNSGALTSGVHTFPAVLQSSGLYSLSSVVTVPSSSLGTQTYICNVNHKPSNTKVDKKVEPKSCDKTHTCPPCPAPELLGGPSVFLFPPKPKDTLMISRTPEVTCVVVDVSHEDPEVKFNWYVDGVEVHNAKTKPREEQYASTYRVVSVLTVLHQDWLNGKEYKCKVSNKALPAPIEKTISKAKGQPREPQVYTLPPSRDELTKNQVSLLCLVKGFYPSDIAVEWESNGQPENNYKTTPPVLRSDGSFFLYSKLTVDKSRWQQGNVFSCSVMHEALHNHYTQKSLSLSPGK light 1: DIVLTQSPATLSLSPGERATLSCRASQSISNNLHWYQQKPGQAPRLLIRFASQSISGIPARFSGSGSGTDFTLTISSLEPEDFAVYFCQQSDNWPLTFGGGTKVEIKRTVAAPSVFIFPPSDEQLKSGTASVVCLLNNFYPREAKVQWKVDNALQSGNSQESVTEQDSKDSTYSLSSTLTLSKADYEKHKVYACEVTHQGLSSPVTKSFNRGEC heavy 2: EVQLVESGGGLVQPGGSLRLSCAASGFTISDYWIHWVRQAPGKGLEWVAGITPAGGYTYYADSVKGRFTISADTSKNTAYLQMNSLRAEDTAVYYCARFVFFLPYAMDYWGQGTLVTVSSASTKGPSVFPLAPSSKSTSGGTAALGCLVKDYFPEPVTVSWNSGALTSGVHTFPAVLQSSGLYSLSSVVTVPSSSLGTQTYICNVNHKPSNTKVDKKVEPKSCDKTHTCPPCPAPELLGGPSVFLFPPKPKDTLMISRTPEVTCVVVDVSHEDPEVKFNWYVDGVEVHNAKTKPREEQYASTYRVVSVLTVLHQDWLNGKEYKCKVSNKALPAPIEKTISKAKGQPREPQVYTEPPSRDELTKNQVSLTCLVKGFYPSDIAVEWESNGQPENNYKTTPPVLDSDGSFFLLSVLTVDKSRWQQGNVFSCSVMHEALHNHYTQKSLSLSPGK light 2: not shown", "values": [
      {"measurement": "binding result", "setting": "[2]", "value": "binds"}
    ]}
  ]
}
